In general, Vmax refers to the rate approached at saturating substrate. One may read the Km as the concentration of substrate that gives half-maximal velocity.

The source of these data is ChEMBL document CHEMBL4382202, “1-(2-Hydroxybenzoyl)-thiosemicarbazides are promising antimicrobial agents targeting d-alanine-d-alanine ligase in bacterio” (Eur J Med Chem, 2018).

Compound in series [1]: O=C(NNC(=S)Nc1ccc(Cl)c(Cl)c1)c1ccccc1O
Briefly: Inhibition of Enterococcus faecalis JH2-2 C-terminal 6His-tagged DdlB expressed in Escherichia coli LMG194 assessed as Vmax of D-Ala at 10 uM by Biomol Green reagent assay (reference value: 61.95 +/- 1.11 microM/min).

Compound in series [2]: O=C(NNC(=S)Nc1ccc(Cl)c(Cl)c1)c1ccccc1O
Nature of the series: Inhibition of Enterococcus faecalis JH2-2 C-terminal 6His-tagged DdlB expressed in Escherichia coli LMG194 assessed as Km of ATP using 50 mM D-Ala substrate by Biomol Green reagent assay.

Compound in series [3]: O=C(NNC(=S)Nc1ccc(Cl)c(Cl)c1)c1ccccc1O
Briefly: Inhibition of Enterococcus faecalis JH2-2 C-terminal 6His-tagged DdlB expressed in Escherichia coli LMG194 assessed as Km of D-Ala at 10 uM by Biomol Green reagent assay (reference value: 5.62 mM).

Compound in series [4]: O=C(NNC(=S)Nc1ccc(Cl)c(Cl)c1)c1ccccc1O
Briefly: Inhibition of Enterococcus faecalis JH2-2 C-terminal 6His-tagged DdlB expressed in Escherichia coli LMG194 assessed as Km of D-Ala at 1 uM by Biomol Green reagent assay (reference value: 5.62 mM).

Compound in series [5]: O=C(NNC(=S)Nc1ccc(Cl)c(Cl)c1)c1ccccc1O
Nature of the series: Inhibition of Enterococcus faecalis JH2-2 C-terminal 6His-tagged DdlB expressed in Escherichia coli LMG194 assessed as Km1 of D-Ala using 500 uM ATP by Biomol Green reagent assay.

Compound in series [6]: O=C(NNC(=S)Nc1ccc(Cl)c(Cl)c1)c1ccccc1O
Briefly: Inhibition of Enterococcus faecalis JH2-2 C-terminal 6His-tagged DdlB expressed in Escherichia coli LMG194 assessed as Vmax of D-Ala at 1 uM by Biomol Green reagent assay (reference value: 61.95 +/- 1.11 microM/min).

Compound in series [7]: O=C(NNC(=S)Nc1ccc(Cl)c(Cl)c1)c1ccccc1O
Briefly: Inhibition of Enterococcus faecalis JH2-2 C-terminal 6His-tagged DdlB expressed in Escherichia coli LMG194 assessed as Vmax of ATP at 10 uM by Biomol Green reagent assay (reference value: 89.05 +/- 5.41 microM/min).

Compound in series [8]: O=C(NNC(=S)Nc1ccc(Cl)c(Cl)c1)c1ccccc1O
Briefly: Inhibition of Enterococcus faecalis JH2-2 C-terminal 6His-tagged DdlB expressed in Escherichia coli LMG194 assessed as Km2 of D-Ala using 500 uM ATP by Biomol Green reagent assay.

Compound in series [9]: O=C(NNC(=S)Nc1ccc(Cl)c(Cl)c1)c1ccccc1O
Briefly: Inhibition of Enterococcus faecalis JH2-2 C-terminal 6His-tagged DdlB expressed in Escherichia coli LMG194 assessed as Vmax of ATP at 1 uM by Biomol Green reagent assay (reference value: 89.05 +/- 5.41 microM/min).

B1: D-alanine--D-alanine ligase (Enterococcus faecalis (strain ATCC 700802 / V583)), Q47758 (protein)
chain: MKIILLYGGRSEEHDVSVLSAYSVLNAIYYKYYQVQLVFISKDGQWVKGPLLSERPQNKEVLHLTWAQTPEETGEFSGKRISPSEIYEEEAIVFPVLHGPNGEDGTIQGFMETINMPYVGAGVLASANAMDKIMTKYLLQTVGIPQVPFVPVLRSDWKGNPKEVFEKCEGSLIYPVFVKPANMGSSVGISKVENREELQEALEEAFRYDARAIVEQGIEAREIEVAILGNEDVRTTLPGEVVKDVAFYDYDAKYINNTIEMQIPAHVPEEVAHQAQEYAKKAYIMLDGSGLSRCDFFLTSKNELFLNELNTMPGFTDFSMYPLLWENMGLKYSDLIEELIQLALNRFK
As for B1, the maximum rate (Vmax) was determined as 45.1 µM/min in [1], 48.6 µM/min in series [6], 23.5 µM/min in [7] and 72.1 µM/min in series [9]. Also, the Km in series [2] was determined as 691 µM; in [3], 9.63 mM; in series [4], 7.01 mM; in series [5] it was 487 µM; in series [8], 10.5 mM.
